This is an account of results in the DeepSol protein solubility set.

This series can be described thus: soluble on expression in E. coli; label from the status in PepcDB or PDB records.
For the sequence “GSDARSRGRVPGYASSSLYRESGIISARQLALLQRMLPRLRLEQLFRCEWLQQRLARGLALGREEVRQILLCAAQDDDGWCSELGDRVNLAVPQSMIDWVLLPVYGWWESLLDQAIPGWRLSLVELETQSRQLRVKSEFWSRVAELEPEQAREELARVAKCQARTQEQVAELAGKLETASALAKSAWPNWQRGMATLLASGGLAGFEPIPEVLECLWQPLCRLDDDVGAADAVQAWLHERNLCQAQDHFYWQS”, the “soluble on expression in E. coli” value is recorded as “not soluble”.

In the case of “MGSDKIHHHHHHMWTPDALSSEVRPYRQDVWRVVEAQSRASTMRLVDSLEEQRLLEDLIDEVKPPVPPSCRQFHYLLSTPFRYGPYPTGSRFRRAGQQDGVFYASESVETAIAELAFYRLLFFVESPGTDLPARPTDHMAFSVPCVADRLIDLTLPPLAQDEAKWVNRLDYTACQDLADIARSARIEAIRYRSVRDPDGGCNLGVLTPAALGATKPQRLETWRLFIRPTGIQVAREFPRAEREFTCADFGADPRLDPFWIRP”, the “soluble on expression in E. coli” value is listed as “not soluble”.

For the sequence “MDFLSREGSPISAELWEKIDEAVVSAAKKILTGRRFISIYGPLGAGIQAINVDNISELDETEENISVIRGRTYRHIPLINEDFSLLWRDLEFSEQMGLPVDLSSASRAATQCALREDKLIFYGNDELGYKGLLTEDGIVKFPISNWSEGENPFKDISIGLAKFIENGIVGRKALVVSPNLFVQLQRIQPGTGTTEYDRINKLLDGNIFSTPVLKDDKAVLVCSEPQNIDLVIGQDMITSYLETKNLNHYFRIMETILLRIKNKKAVIVFD”, the “soluble on expression in E. coli” value is recorded as “not soluble”.

Take “ELVMTQSPKFMSTSVGDRVSVTCKASQNVGTHVAWYQQKPGQSPKTLIYSASYRYSGVPDRFTGSGSGTDFTLTIRDVQSEDAAEYFCQQYNLFPVTFGGGTKLEIKRTVAAPSVFIFPPSDEQLKSGTASVVCLLNNFYPREAAVAWKVDNALQSGNSQESVTEQDSADSTYSLSSTLTLSKADYEKHKVYACEVTHQGLSSPVTKSFNRGE”: the “soluble on expression in E. coli” value was “soluble”.

Take “MSLSSTSHERLEVEPIDESSILFADDDHYTSDTVCLVTGGGSGIGRATALAMAANGVTAVATDIDADGLAEVADTAADLDLDGAVETVAGDLANDADIEAIVETAASHGTVRYLANIAGLQHIDAIEDFPMEKYDQMHDVMLRAPLALSKRVIPHIRGTDDGVGAIGNMASVHGHYVTSDKVAYNVSKFGLRGLTQSIAAEGGDGLRGFSISTGYVKTPLVVDQIPDTAEQRGISVDEVIDDVMLGQARIKEMMDPIDVANLFVFGFSRHANHLNGGDLLFDGGMTKTYEGHHHHHH”: the “soluble on expression in E. coli” value was “not soluble”.

For “MDNKALLTHVDINNVVCAMPLPYTRLYEGLASGLKAQFDGIPFYYAHMRGADIRVECLLNGVYDMAVVSRLAAESYLTQKGLCLALELGPHTYVGEHQLICRKGESANVKRVGLDNRSADQKIMTDVFFGGSDVERVDLSYHESLQRIVKGDVDAVIWNVVAENELTMLGLEATPLTDDPRFLQATEAVVLTRVDDYPMQQLLRAVVDKHALLAHQQRVVSGEQEPSY”, the “soluble on expression in E. coli” value is reported as “soluble”.

As for “MGSDKIHHHHHHMTTTIQALEKHLQVRLLNRTTRKISLTPDGAVYYDRTARILADVADIESSFHDAERGPRGQLRIDVPVSIGRLILIPRLRDFHARYPDIDLVIGLNDRPVDLVGEAVDCAIRVGELKDSSLIARRIGTFQCATAASPIYLEKYGEPTSIEDLQKNHKAIHFFSSRTGRNFDWDFVVDDLIKSVSVRGRVSVNDGDAYIDLALQGFGIIQGPRYMLTNHLESGLLKEVLPQWTPAPMPISAVYLQNRHLSLKVKVFVDWVAELFAGCPLLGGTALPFDQKCEFACDKETGHEYTIRTLVEQHNIAEAYTLKT”, the “soluble on expression in E. coli” value is reported as “not soluble”.

For “GMSRAPDTWILTADCPSMLGTVDVVTRYLFEQRCYVTEHHSFDDRQSGRFFIRVEFRQPDDFDEAGFRAGLAERSEAFGMAFELTAPNHRPKVVIMVSKADHCLNDLLYRQRIGQLGMDVVAVVSNHPDLEPLAHWHKIPYYHFALDPKDKPGQERKVLQVIEETGAELVILARYMQVLSPELCRRLDGWAINIHHSLLPGFKGAKPYHQAYNKGVKMVGATAHYINNDLDEGPIIAQGVEVVDHSHYPEDLIAKGRDIECLTLARAVGYHIERRVFLNANRTVVL”, the “soluble on expression in E. coli” value is “soluble”.

For “MNECGHCSVKVGEESAILTNGKVWHVNHLLCDLCNCRINDGERCVPQNGVILCSECHIKTTRPICKGCGEFIKTNLCEALNSTWHPTCFQCSVCQKPLEVDFHQLPNRMCVHSDCFWDLQLRMIVCKDLPK”, the “soluble on expression in E. coli” value was “not soluble”.

For “MNKALSVENLGFYYQAENFLFQQLNFDLNKGDILAVLGQNGCGKSTLLDLLLGIHRPIQGKIEVYQSIGFVPQFFSSPFAYSVLDIVLMGRSTHINTFAKPKSHDYQVAMQALDYLNLTHLAKREFTSLSGGQRQLILIARAIASECKLILLDEPTSALDLANQDIVLSLLIDLAQSQNMTVVFTTHQPNQVVAIANKTLLLNKQNFKFGETRNILTSENLTALFHLPMFEQQAQYKESFFTHFVPLYKTLLK”, the “soluble on expression in E. coli” value was “soluble”.

As to “MEAQNRIEDHGIIGDMRSAALIADTGSIDFCCWPDFDSPSIFTALLDTPDAGIFQLAPDLPDARRLQIYLPDTNVLQTRWIAEQAVVEVTDLMPIGEDQDDLPRIVRRVQVRFGEATIRMRCRVRMDYSRALEHHHHHH”, the “soluble on expression in E. coli” value is given as “not soluble”.

With “MGSDKIHHHHHHATCCAANGEGNCPEGTCRKECTNACNTNNQKNKTMAYSKKYTNADFYKDGKFQQDVAMEAMKDMFAFYDVPFTELMAKDMWVTDFGLGDFENVGMGGIFWINDPEYKYFAHAIYLLPGQMIPEHAHVKTDFPAKHESWMVEKGWVYNFSEVGDETPNAPAIPAGHGPIKSKNFVVQKVGDVLRLKKLETFHFMMAGPEGAIVDEWACYHDNAGLRFTNQKAAL”, the “soluble on expression in E. coli” value was “not soluble”.

“MKDLVDTTEMYLRTIYELEEEGVTPLRARIAERLEQSGPTVSQTVARMERDGLVVVASDRSLQMTPTGRTLATAVMRKHRLAERLLTDIIGLDINKVHDEASRWEHVMSDEVERRLVKVLKDVSRSPFGNPIPGLDELGVGNSDAAAPGTRVIDAATSMPRKVRIVQINEIFQVETDQFTQLLDADIRVGSEVEIVDRDGHITLSHNGKDVELLDDLAHTIRIEEL”: the “soluble on expression in E. coli” value was “soluble”.

Regarding “GSSHHHHHHDYDIPTTENLYFQGSAHRPRWTLSQVTELFEKPLLDLLFEAQQVHRQHFDPRQVQVSTLLSIKTGACPEDCKYCPQSSRYKTGLEAERLMEVEQVLESARKAKAAGSTRFCMGAAWKNPHERDMPYLEQMVQGVKAMGLEACMTLGTLSESQAQRLANAGLDYYNHNLDTSPEFYGNIITTRTYQERLDTLEKVRDAGIKVCSGGIVGLGETVKDRAGLLLQLANLPTPPESVPINMLVKVKGTPLADNDDVDAFDFIRTIAVARIMMPTSYVRLSAGREQMNEQTQAMCFMAGANSIFYGCKLLTTPNPEEDKDLQLFRKLGLNPQQTAVLAGDNEQQQRLEQALMTPDTDEYYNAAAL”, the “soluble on expression in E. coli” value is reported as “soluble”.

As for “MSLIPLRQNIASMKGYIPGYQPPDIASWIKLNTNENPYPPSPEVVKAILEELGPDGAALRIYPSASSQKLREVAGELYGFDPSWIIMANGSDEVLNNLIRAFAAEGEEIGYVHPSYSYYGTLAEVQGARVRTFGLTGDFRIAGFPERYEGKVFFLTTPNAPLGPSFPLEYIDELARRCAGMLVLDETYAEFAESNALELVRRHENVVVTRTLSKSYSLAGMRIGLAIARPEVIAALDKIRDHYNLDRLAQAACVAALRDQAYLSECCRRIRETREWFTTELRSIGYDVIPSQGNYLFATPPDRDGKRVYDGLYARKVLVRHFSDPLLAHGMRISIGTREEMEQTLAALKEIGEGHHHHHH”, the “soluble on expression in E. coli” value was “soluble”.

Take “MSLGYIMDLRKELPNPHRPLIMCSAGIIIIDKKGRVLLQKRTDNNKWGLPGGSLELGESFEEAAIREAYEEVGLKVKSLSLFNVYSGKECYNKYPNGDEIYNASSIFISNDYEGEVILDGEESADAVFFKKVDIPSLEEVNPPDRIVIKDIIEKLNIEKYEGHHHHHH”: the “soluble on expression in E. coli” value is recorded as “not soluble”.

With “MTCTTEIDILKWTVRYCSSLAAHLLTPTRLFKYEIQQQSDLRNATENKTEKYISDDVGHCRHTYMQIR”, the “soluble on expression in E. coli” value was “soluble”.

Turning to “MAYSEKVIDHYENPRNVGKLDAADPNVGTGMVGAPACGDVMRLQIKVNEQGVIEDAKFKTYGCGSAIASSSLATEWMKGKTLDEAETIKNTTIAEELALPPVKIHCSVLAEDAIKAAVRDYKQKKGLL”, the “soluble on expression in E. coli” value is listed as “not soluble”.

On to “MGNASENFDIEDLMSYGDDLINLLNVKNGFDIISQSSEQFKALNFACHEDFNQIQGSIEDCKTKLYACKKKTEEAYSDIAAEDEIERLQKELDEEMEREFKLKDELR”, for which the “soluble on expression in E. coli” value is “soluble”.

As to “MTETEQEAFADLVAELETQTAEAVKAFSKVFDRMEETNDDKEGLSLLKLKNYEMTAYLGELTVLMSKMMKGESITVEPSVKRALKHRVFIEKMKPVEDKMKPQIEKLLGRSSAESGASNGSSKGNHRVRLDNMDVEGDEEEEEEDEDDEEGKGAKEVKKYVAPRIRAVRYEEEDEAPNKQQEKAKRRAMQSSLIMELKNQYSDAPEEIREMSEKKYQYDRERERYEEDNFTRIRLNKDQKRRSEQLGRSETLDDLLSFGDYMMRGEDGRALSEGNKRKRATSSGAGGDTKRHKKSQKERKKAAKGKKEGRKRAIRRRQ”, the “soluble on expression in E. coli” value was “not soluble”.

As to “MGHHHHHHSHVNTLGPEGTSSEYAAKHFISNFTLLQGLNSKLSLHDTFESCIERTLQSPLEYTIVPHAYDGIKHFYMRPDLQLLQIFRCDTPMYGLAVRPDFEFRDDMLDTSVIVSHPSPINLIKYFTRKDVRFKLVNSTSQAARKVKEGLYDIALTNELARQKYGLTFVKTFKSIPMSWSLFGKGDV”, the “soluble on expression in E. coli” value is “soluble”.

With “MGSDKIHHHHHHMPVDWPLRFPQLSGGASRPHSSLASTCVGGLQELMQSCYPPRGGCWIAAVLEDAGVERVCGLLGKGHAGVVLLVEWRGVAAALKVRRRDSRRGSLEPEARVAEKAALAGAAPEVYGYGEEFIAMAPALGPSLQDLAEEGLLTPQHILASIEAAWALDNAGILHGELHRPWRNVLFNPRKALIIDYDSASSGCGNVVKLVSGISRRVPSLLGLVRSERFRDLAKRYYREGCGKATYMEMLDEVKKHISVI”, the “soluble on expression in E. coli” value is listed as “not soluble”.

Turning to “MAASRALSLTAEAVRAVIPRRSGRLLTRWETTSSIPEAGEGQIRLTDSCVQVGGRTRGGGAQEGSRRLPSHPSRYLRLLGILDPLS”, the “soluble on expression in E. coli” value was “not soluble”.

In the case of “GERIDIRISPYLQDLFDAARADGVYPIVASGYRTTEKQQEIMDEKVAEYKAKGYTSAQAKAEAETWVAVPGTSEHQLGLAVDINADGIHSTGNEVYRWLDENSYRFGFIRRYPPDKTEITGVSNEPWHYRYVGIEAATKIYHQGLCLEEYLNTEK”, the “soluble on expression in E. coli” value is “not soluble”.

For the sequence “MSKRTTPTYPVEVIRSDRRTRTVSARLVGGKILIRIPASMSKKDEKKFVAEMVDKVRTKTQSSAPTDEALLHRAQHLNRTVLENRATIGSIRWVTNQTRRWGSCSQTTNDIRISHRLQGVPDYVLDAVIIHEMVHTFIEGGHSPEFWQWADKAPKAERAKGYLEAWQRMGDVGLEHHHHHH”, the “soluble on expression in E. coli” value is recorded as “not soluble”.

Consider “GSGIIEFHVIGNSLTPKANRRVLLWLVGLQNVFSHQLPRMPKEYIARLVFDPKHKTLALIKDGRVIGGICFRMFPTQGFTEIVFCAVTSNEQVKGYGTHLMNHLKEYHIKHNILYFLTYADEYAIGYFKKQGFSKDIKVPKSRYLGYIKDYEGATLMECELNPRIPYT”, for which the “soluble on expression in E. coli” value is on record as “soluble”.
